Measurements from the supplement of paper PMC9170038.

Tested on: MS2 coat protein
Assay: apparent KD of MS2 coat protein; higher = weaker reporter binding
Settings: Eterna round: R107
Summary of the method: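 The buffer was 100 mM Tris-HCl pH 7.5 with 80 mM KCl and 4 mM MgCl2, used without or with constant ligand. In it, RNA switches transcribed on-chip from Illumina sequencing clusters were titrated with SNAP-549-labelled MS2 coat protein in twofold steps from 0.7 or 1.5 nM to 3 µM. Apparent KD for each design is the median of its normalised cluster binding-curve fits.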

[1] = input ligand: theophylline 20 uM
[2] = input ligand: tryptophan 2.4 mM
[3] = input ligand: theophylline 2 mM

Sequence | apparent KD of MS2 coat protein (input ligand: arginine 13.2 mM) [nM] | apparent KD of MS2 coat protein [1] [nM] | apparent KD of MS2 coat protein [2] [nM] | apparent KD of MS2 coat protein [3] [nM] | apparent KD of MS2 coat protein (input ligand: none) [nM]
AUUAUCAUGGUCAUAUAUAUAUCUUCAGAUACCAGACUAUAUUAAGUCCCUUGGCAGCUGUUACAUGAGGAUCACCCAUGUUAUA [JR_ExcTheophyA_Sub014] | 53.9 | 76.1 | 102 |  | 
AUUAUCAUGGUCAUAUAUAUUUCGUCAGAUACCAGACUAGAUAUAGUCCCUUGGCAGCUGUUACAUGAGGAUCACCCAUGUUAUA [JR_ExcTheophyA_Sub016] | 55 | 76.8 | 93.3 |  | 
AUUUAUUGUCGUGAUACCAGACAUACAUGAGGAUCACCCAUGUUAAGUAACUUUUUUCAGGUCCCUUGGCAGCACUUUUUAAUUA [JR_Nu_SSTheophyB_Sub019] | 21.1 | 23.8 | 18.1 |  | 
AUUUUUCUAUCAGAUACCAGACAAUUUUAGACAUGAGGAUCACCCAUGUAUAGGGUGUUCGUCCCUUGGCAGCUGUUAAGUUUAA [JR_SSTheophyB_Sub004] | 62 | 152 | 182 |  | 
CAAUGCAGGUCGGCCGCCACUACACACAUGAGGAUCACCCAUGUAGUUACUGGGUGAAGUGGCAGUAGGACCGGGACCUGCAUAA [Brourdmod02] | 143 | 417 |  | 568 | 
CACAAUUUGUCGGCCGCCACUAAGGUAACUUUUCUCACAUGAGGAUCACCCAUGUGCCCGAAACUUAGGACCGGGAUAAUGGGUG [Usteraor] | 35.9 | 146 |  | 183 | 
CACAGUGCGAAAUUGAAUUCGCACGAUCCUCGAGGACCGGUACGGCCGCCACUCGCGCGGGUCGUACAUGAGGAUCACCCAUGUC [Zatiin] | 41.3 | 419 |  | 477 | 
CACAUGAGGAUCACCCAUGUCUGAACUGAAGGAGCGCUAAACAAGGCAGGUAGGUCGCGGAAUCUUGUGUGCAUAUGCACACGGG [9.S] | 18.4 | 27.4 | 19.9 | 22.7 | 18.2
CACGAAAGAUCGGCCGCCACUAUUUGAUGUGUUCUUUCACAUGAGGAUCACCCAUGUUCUUAUUUUAGGACCGGGAUUGAGCGUG [ETB #2] | 72.7 | 142 |  | 145 | 
CACGAAAGAUCGGCCGCCACUAUUUGAUGUGUUCUUUCACAUGAGGAUCACCCAUGUUCUUUCUUUAGGACCGGGAUUGAGCGUG [ETB #1] | 88.8 | 126 |  | 162 | 
CAGACUAGGGCGGCCGCCACUGUGGCUACGGUACAUGAGGAUCACCCAUGUUUGUGGUUGAUCUACAGGACCGGGCCCUGGCACG [Orbera] | 9.05 | 588 | 273 | 200 | 305
CAUCCACCUGAAGCCUCCCAAUUCCUCGAUACCAGAGGAUUAAGACUCCCUUGGCAGCGAGCUACAUGAGGAUCACCCAUGUGCC [theeternabot_exclusion_MS2_Theo_A_32] | 17.8 | 24.1 | 18.2 |  | 
CAUCCUAGUACAUGAGGAUCACCCAUGUAUCGAGGACCGGUACGGCCGCCACUCGAAUGGCGGAUCGUUAAUCCUCUAGGAUGGA [Tryp A Ex 4a] | 11.7 | 14 |  | 11.5 | 
CAUGCCAGGGCGGCCGCCACUGUGGCUACGGUACAUGAGGAUCACCCAUGUUUGUGGUUGAUCUACAGGACCGGGCCCUAGCACG [Anananenes] | 30.6 | 597 |  | 528 | 
CAUUAAUUACGAAGGAGCGUCGAAAAUGGGUAAACAUGAGGAUCACCCAUGUAAAGGGAACGACAGGUAGGUCGCGUAAUUAAUG [AstromonsSSArgB#2] | 132 | 169 | 158 | 230 | 170
CAUUAUGUAACUGAUACCAGUGUACUGACAUGAGGAUCACCCAUGUUGGGUUUUGUUGUACACCCUUGGCAGCAGAAUCAUAAUG [AstrosExyTheB#2] | 43.3 | 70.3 | 57.8 |  | 
CAUUGAGCAGCUGAUACCAGUGCCUGAACUUACAUGAGGAUCACCCAUGUAUGCCCAAAACACCCUUGGCAGCAGAGGAAGAUCG [theeternabot_sameState_MS2_Theo_B_38] | 15.2 | 18.9 | 14.5 |  | 
CCACACAUGAGGAUCACCCAUGUAAUUGAUACCAGAUUUAAAUGAGUCCCUUGGCAGCAGUGAGCUAGAGUUGUCGUAUAUAUGG [Theo A SS t2] | 14.2 | 23.8 | 16.1 |  | 
CCAUAGGGUAAAUACGUAAUCAUAUCUGAAGGAGCGUGGAUAUACACAGGUAGGUCGCAGAAUCACAUGAGGAUCACCCAUGUCU [Same State Arginine A GF12] | 28.8 | 39.8 | 42.7 | 47.5 | 41.2

Sequence | apparent KD of MS2 coat protein (input ligand: arginine 13.2 mM) [nM] | apparent KD of MS2 coat protein [1] [nM] | apparent KD of MS2 coat protein [2] [nM] | apparent KD of MS2 coat protein [3] [nM] | apparent KD of MS2 coat protein (input ligand: none) [nM]
CCAUUGAUGACGGCCGCCACUGUCUACAUGAGGAUCACCCAUGUAUAGCAGGGUGGACCUAUGGACAGGACCGGGUCACUUGUCC [Tryp B Ex t7] | 10.4 | 13.7 |  | 12.4 | 
CCCAAUUAGAUCUUUGGAAUUUUACUCGAAGGAGCGUCAUAGUAGGCAGGUAGGUCGCGAGACAUGAGGAUCACCCAUGUAGAGA [btbmullin] | 33 | 50.8 | 33 | 38.5 | 40.9
CCCUGGGUGGGAAGGAGCGCAUAGUGAACAUGAGGAUCACCCAUGUGUAGACGUGAGUCACUGCAGGUAGGUCGCCCACCCAGGG [SS-ArgB23] | 19.5 | 47.3 | 29.5 | 46.5 | 27.5
CCGGCGCGAUUAUGGGUUUGCUUUUACGAUACCAGCCGCGUUCCGGGCCCUUGGCAGCGUGUAACAUGAGGAUCACCCAUGUUCA [theeternabot_exclusion_MS2_Theo_A_37] | 9.81 | 20.7 | 10.1 |  | 
CCUAUUCCUACGGAUACCAGACGAUCCGUGGCGUGUGUGAACAUGAGGAUCACCCAUGUAGUCCCUUGGCAGCCGAUGCGGGUAA [theeternabot_exclusion_MS2_Theo_B_10] | 37.7 | 51.4 | 33.5 |  | 
CCUCAUGAACAUGAGGAUCACCCAUGUACACGAGGACCGGUACGGCCGCCACUCGAAUAAGCUAAAUAUAAAUAAUAAUAAUAGC [5' end split MS2] | 18.4 | 18.3 |  | 16.8 | 
CGAUCUUUCGAAAGAAGGAUCGAGUCUGAUACCAGAGACGAAAGUCUCCCUUGGCAGCAGUGCCAACAUGAGGAUCACCCAUGUU [Theophylline A 10] | 16.2 | 19.1 | 15.8 |  | 
CGAUGCGCAUUAUCCCACUGGUAUGAGUCUCGAGGACCGGUACGGCCGCCACUCGCUACCGUACAUGAGGAUCACCCAUGUAUUA [theeternabot_exclusion_MS2_Trp_A_13] | 23.7 | 38.8 |  | 35.9 | 
CGCACAGAGAAUGAUACCAGCGAGGAAGCGACAUGAGGAUCACCCAUGUGCGAAUGAUCCCGCCCUUGGCAGCGUAAGUGAUCCC [ss-theoB-?] | 59.3 | 154 | 62.6 |  | 
CGCGGUUGAGAUGGGCCUUUGAUAAGUCUGCGAGGACCGGUACGGCCGCCACUCGAGGACAUGAGGAUCACCCAUGUACUUCGCG [Atriera] | 51.1 | 81 |  | 57.7 | 
CGCUACAUAGCGGCCGCCACUGUCAUGGCUACGAUAGGUCACUCGUACAUGAGGAUCACCCAUGUCAGGACCGGGCUAUCCUCGC [theeternabot_exclusion_MS2_Trp_B_20] | 64.9 | 112 |  | 112 | 
CGGUUGCCACAUGAGGAUCACCCAUGUGAAGGAGCGGCGAAUAAGCCAGGUAGGUCGCGCAUGAAUAAAUCAUGUUGGUGCCGAA [XArg-A 17 V2] | 25.6 | 65.1 | 33.4 | 68.5 | 39.7
CGUCGAAACUGAAGGAGCGAGAUGACAACAUUGGGUCUAACAUGAGGAUCACCCAUGUAAUCUCAGGUAGGUCGCGGUGUCAACA [Exclusion Arginine B GF18] | 53.7 | 86.3 | 63.9 | 120 | 64.6
CUAAGAGCGGCGGCCGCCACUGGUAACCGAGAGGAGGAGCCUCUGACAUGAGGAUCACCCAUGUUCAGGACCGGGUCGUCUUAGA [#06 Same State - Tryptophan B] | 41.2 | 77.5 | 54.6 | 74.4 | 60.2
CUAUUUAUAGCGGCCGCCACUUACUCAUGAGGUAACAACAUGAGGAUCACCCAUGUUUGAGGAUCAAGGACCGGGCUAUAGAUAG [AstrosSSTryB#11] | 36.7 | 20.3 | 15 | 24.3 | 27.5
CUGACAGACUCGGCCGCCACUGAUAGUAGGACAUGAGGAUCACCCAUGUAAACAAACCUCAUAGCCAGGACCGGGAGUCACGAAG [Same State Tryptophan B GF 21] | 31 | 57.1 | 24.9 | 51.3 | 45.6
CUGCCACAGAUAGAUACCAGAGGCGUGCAAGCUACAGCUCACAUGAGGAUCACCCAUGUUCUCCCUUGGCAGCUACGGUGUAAGG [theeternabot_exclusion_MS2_Theo_B_26] | 17.1 | 24 | 19.4 |  | 
CUGGACAUGAGGAUCACCCAUGUAAAUCCUCGAGGACCGGUACGGCCGCCACUCGAACGAGUGGCGCGCGCGCGCGCGCGCGCGC [aIa] | 23.5 | 142 | 62.9 | 89.5 | 54.3
